In US5571894, “Recombinant antibodies specific for a growth factor receptor” (Ciba-Geigy Corporation, dated 1996):

B1: mouse monoclonal antibody FRP5 (antibody, V domains shown)
VH: QVQLQQSGPELKKPGETVKISCKASGYPFTNYGMNWVKQAPGQGLKWMGWINTSTGESTFADDFKGRFDFSLETSANTAYLQINNLKSEDMATYFCARWEVYHGYVPYWGQGTTVTVSS
VL: DIQLTQSHKFLSTSVGDRVSITCKASQDVYNAVAWYQQKPGQSPKLLIYSASSRYTGVPSRFTGSGSGPDFTFTISSVQAEDLAVYFCQQHFRTPFTFGSGTKLEI
B2: mouse monoclonal antibody FWP51 (antibody, V domains shown)
VH: QVQLQQSGAELVRPGTSVKLSCKASDYTFTSYWMNWVKQRPGQGLEWIGMIDPSDSETQYNQMFKDKAALTVDKSSNTAYMQLSSLTSEDSAVYYCAKGGASGDWYFDVWGQGTTVTVSS
VL: DIQLTQSPSSLSASLGGEVTITCKASQDIKKYIAWYQHKPGKSPRLLIHYTSVLQPGIPSRFSGSGSGRDYSFSIHNLEPEDIATYYCLHYDYLYTFGGGTKLEI

Experiments:
[1] = molecular target: 185 kD c-erbB-2 protein from SKBR3 cell lysates (human, UniProt P04626); test: immunoprecipitation from SKBR3 extract, blot detected with antiserum 21N
[2] = molecular target: T1, human c-erbB-2 protein (human, UniProt P04626); test: immunofluorescent staining of fixed HC11 cells transfected with human c-erbB-2 (clone R1#11), non-transfected HC11 as control; screen of hybridoma supernatants
[3] = molecular target: T1, human c-erbB-2 protein; test: flow cytometry on SKBR3 cells

Binder	binding result [1]	binding result [2]	binding result [3]
B1	binds	binds	
B2	binds		binds
